Measurements as given in US10012655B2, “Method for quantitating total HMGB1 protein in biological samples” (INSTITUT PASTEUR, priority 2008, dated 2018).

Tests used:
R5-HIV-1Ba-L = experiment: HIV-1 replication in infected iDCs, p24 ELISA in culture supernatant; assay type: cell-based; conditions: 1 μg/ml, 3 days
Experimental: FIGS. 6 (a), (b) and (c). Exogenous rh-HMGB1 triggers HIV-1 and HIV-2 replication in iDC. (a) HIV-1-infected iDC were cultured alone or in the presence of aNK cells for 3 days. Rh-HMGB1 (1 μg/ml) was added in some cultures. HIV replication was measured by p24 quantification in culture supernatant (b) HIV1-infected iDC were cultured alone or in the presence of aNK cells for 3 days. Blocking anti-HMGB1 antibodies (10 μg/ml) or glycyrrhizin (10 μg/ml) were added at culture initiation. HIV replication was measured by p24 quantification in culture supernatant. The mean±sd of three independent experiments is shown. Statistical comparisons were made with the non parametric Mann-Whitney test. * p<0.05; (c) HIV-2-infected iDC were cultured alone or in the presence of aNK cells for 3 days. Rh-HMGB1 (1 μg/ml) was added in some cultures. HIV replication was measured by p24 quantification in culture supernatant.
Virus stock preparation was prepared by amplification of R5-HIV-1Ba-L on MDM from healthy donors. Viral stock was then clarified by centrifugation prior to determination of HIV1 p24 concentration. iDCs were plated in 96-well culture plates at 200,000 cells/well and incubated for 3 hours at 37° C. in a 5% CO2 atmosphere with R5-HIV-1BAL at various concentrations (0.001 to 10 ng p24/ml). Cells were harvested, washed four times with media containing 10% FCS and, when indicated, rNK or aNK cells were added at a NK:DC ratio of 1:5, unless otherwise indicated. NK-DC cocultures lasted 24 h before analysis of the maturation stage of DCs and/or quantification of viral production. In some experiments (FIG. 6), HIV-1 infected iDCs were incubated alone or with aNK cells for 3 days, in the presence of rh-HMGB1 (1 μg/ml) (R&DSystems), and in some cultures in the presence of rabbit antiHMGB1 Abs (10 μg/ml) (Abcam, Cambridge, UK) or Glycyrrhizin (10 μg/ml).
The concentration of HIV-1 in the supernatant of infected cell cultures was determined by measuring the amount of p24 protein by ELISA (Ingen, Belgium). DNA from cells was extracted using the GIAamp DNA Blood Mini Kit (Qiagen, Basel, Switzerland) and quantified HIV-1 proviral load by RT-PCR as described previously54. The frequency of HIV-1-infected cells was determined by flow cytometry to detect intracellular p24 molecule. Cells were surface stained with antibodies specific for CD40 (BD Biosciences, San Jose, Calif.) to target DC and intracellular stained with p24-specific antibodies (Coulter). Stained cells were fixed in 1% PFA, immediately acquired on a FACScalibur (Becton Dickinson) and analyzed with FlowJo software. In some experiments infected DCs were imaged, after immunofluorescence, by laser scanning confocal microscopy.

iDCs = experiment: Cytokine and chemokine production by DCs (MAP/Luminex); assay type: cell-based, human; conditions: iDCs 48 h with 1 or 10 μg/ml
Experimental: FIG. 3 (a)-(e). aNK-dependent maturation of HIV-1-infected iDCs is mediated by HMGB1 and involves RAGE. (a) Left panel: iDCs were cultured for 24 h either alone or with aNK cells, in the presence of blocking anti-HMGB1 antibodies (10 μg/ml) or glycyrrhizin (10 μg/ml). The maturation status of DCs was determined by flow cytometry with CD86 and HLA-DR—specific antibodies. Right panel: same experiment, but performed with HIV-1 infected iDCs. Data represent mean±sd of at least three independent experiments, and statistical comparisons were made with the non parametric Mann-Whitney test. * p<0.05. (b) iDC (10^6 cells/ml) were cultured for 48 h with increasing concentrations (1-10 μg/ml) of rh-HMGB1. Cells were then stained with anti-CD86, -HLA-DR, -CD80, -CD83, DC-LAMP and -CD40 antibodies and analyzed by flow cytometry. (c) Influence of rh-HMGB1 on cytokine and chemokine production (determined by MAP) by DCs. iDCs (10^6 cells/ml) were incubated for 48 h in medium or in presence of rh-HMGB1 (1 or 10 μg/ml). As a positive control, iDCs were stimulated with LPS (DC0). […] (e) iDC, DC0, uninfected or HIV-1-infected iDC cocultured for 24 h with aNK cells, were incubated with rh-HMGB1 (1 μg/ml) and subsequently stained with anti-RAGE antibodies and analyzed by flow cytometry. […]

B1: rh-HMGB1: recombinant human HMGB1 protein (R&D Systems) (protein, UniProt P09429 1-215, looked up)
High mobility group protein B1: MGKGDPKKPRGKMSSYAFFVQTCREEHKKKHPDASVNFSEFSKKCSERWKTMSAKEKGKFEDMAKADKARYEREMKTYIPPKGETKKKFKDPNAPKRPPSAFFLFCSEYRPKIKGEHPGLSIGDVAKKLGEMWNNTAADDKQPYEKKAAKLKEKYEKDIAAYRAKGKPDAAKKGVVKAEKSKKKKEEEEDEEDEEDEEEEEDEEDEDEEEDDDDE
R5-HIV-1Ba-L; HIV-1-infected iDC cocultured with aNK cells
  p24 production in culture supernatants: significant stimulatory effect on p24 production
R5-HIV-1Ba-L; HIV-1-infected iDC cultured alone
  production of p24 in culture supernatants: enhancing dramatically the production of p24
iDCs
  release of the chemokines MCP1, MIP-1α, MIP-1β and IL-8: increased release
